{
  "source": "patent US9737089B2",
  "about": "“Milk-based nutritional compositions containing lactoferrin and uses thereof” (Mead Johnson Nutrition Company, priority 2012, dated 2017)",
  "origin": "cited, not measured here",
  "system": "EPEC adhesion to HeLa cells",
  "settings": "Nascimento de Arujao et al., BMC Microbiol. 1:25 (2001)",
  "data": [
    {"molecule": "human lactoferrin: iron-binding glycoprotein, one of the major multifunctional agents present in human milk (protein, UniProt P02788 20-710, looked up) Lactotransferrin: GRRRSVQWCAVSQPEATKCFQWQRNMRKVRGPPVSCIKRDSPIQCIQAIAENRADAVTLDGGFIYEAGLAPYKLRPVAAEVYGTERQPRTHYYAVAVVKKGGSFQLNELQGLKSCHTGLRRTAGWNVPIGTLRPFLNWTGPPEPIEAAVARFFSASCVPGADKGQFPNLCRLCAGTGENKCAFSSQEPYFSYSGAFKCLRDGAGDVAFIRESTVFEDLSDEAERDEYELLCPDNTRKPVDKFKDCHLARVPSHAVVARSVNGKEDAIWNLLRQAQEKFGKDKSPKFQLFGSPSGQKDLLFKDSAIGFSRVPPRIDSGLYLGSGYFTAIQNLRKSEEEVAARRARVVWCAVGEQELRKCNQWSGLSEGSVTCSSASTTEDCIALVLKGEADAMSLDGGYVYTAGKCGLVPVLAENYKSQQSSDPDPNCVDRPVEGYLAVAVVRRSDTSLTWNSVKGKKSCHTAVDRTAGWNIPMGLLFNQTGSCKFDEYFSQSCAPGSDPRSNLCALCIGDEQGENKCVPNSNERYYGYTGAFRCLAENAGDVAFVKDVTVLQNTDGNNNEAWAKDLKLADFALLCLDGKRKPVTEARSCHLAMAPNHAVVSRMDKVERLKQVLLHQQAKFGRNGSDCPDKFCLFQSETKNLLFNDNTECLARLHGKTTYEKYLGPQYVAGITNLKKCSTSPLLEACEFLRK", "values": [
      {"measurement": "inhibition of adhesion of EPEC to HeLa cells", "value": "can inhibit the adhesion"}
    ]}
  ]
}
